Molecular target: GST-PfMTIP (P. falciparum (3D7)) (UniProt Q8I4W8)
Test: pull-down; GST or GST-MTIP coupled to glutathione-Sepharose 4B; 25 µg His-tagged Rab protein incubated overnight at 4°C; four washes in PBS (0.1% Triton X-100); detected by anti-His immunoblot

Which percent of input detected in the pull-down does the source give for PfRab11A-His (natural protein) here?
The percent of input detected in the pull-down was 5%.
